Where a chain is given by its changes, count along the chain named. Numbers in names are those of the source.
What was measured:
PAXF1657 tumors = test: PAXF1657 pancreas cancer PDX model; assay type: in vivo, NMRI nu/nu mice
Protocol: Human pancreas tumor tissue was subcutaneously implanted in the left flank of 5-7 weeks old female NMRI nu/nu mice. […] At day of randomization (day 0), the 3 ADCs were dosed intravenously (i.v.) at either 4 mg/kg or 2 mg/kg, and the control group received a single dose of IgG1-b12 (4 mg/kg). Tumor volumes (mm^3) were monitored twice weekly and were calculated from caliper (PLEXX) measurements as: 0.52×(length)×(width)^2.

A431 tumors = test: A431 xenograft model (high Gas6); assay type: in vivo; settings: 3 mg/kg i.p., SCID mice
Protocol: (§1) Tumor induction was performed by subcutaneous injection of 5×10^6 A431 or LCLC-103H tumor cells (both obtained from Leibniz-Institut—Deutsche Sammlung von Mikroorganismen and Zellkulturen GmbH (DSMZ)) in 200 μL PBS in the right flank of female SCID mice. Treatment was started 14-21 days after tumor cell inoculation, when the average tumor size was >100-200 mm^3 and distinct tumor growth was observed. Mice received a single injection or a total of 4 biweekly intraperitoneal injections with IgG1-AXL-vcMMAE ADCs or control antibody (unconjugated IgG1-b12), as indicated. Tumor volume was determined at least two times per week. Tumor volumes (mm^3) were calculated from caliper (PLEXX) measurements as: 0.52×(length)×(width)^2.

[1] = system: LCLC-103H xenograft tumors; test: Therapeutic treatment of SC LCLC-103H tumor xenografts (Example 3); assay type: in vivo, SCID mice; settings: for tumor volume versus control IgG1-b12: day 30, One Way ANOVA (Dunnett's); for anti-tumor activity in established SC LCLC-103H tumors: single i.p. injection 1 mg/kg, SCID mice
Protocol: The in vivo efficacy of MMAE-conjugated anti-AXL antibodies was determined in established subcutaneous (SC) LCLC-103H xenograft tumors in SCID mice. 5×10^6 LCLC-103H (large cell lung carcinoma) tumor cells (obtained from Leibniz-Institut DSMZ-Deutsche Sammlung von Mikroorganismen and Zellkulturen GmbH (DSMZ)) in 200 μL PBS were injected subcutaneously in the right flank of female SCID mice. Starting 14-21 days after tumor cell inoculation, when the average tumor size was >100-200 mm^3 and distinct tumor growth was observed, a single injection with 1 mg/kg (20 μg/mouse) IgG1-AXL-vcMMAE antibodies or control (unconjugated IgG1-b12) was given intraperitoneally (100 μL/mouse). Tumor volume was determined at least two times per week. Tumor volumes (mm^3) were calculated from caliper (PLEXX) measurements as: 0.52×(length)×(width)^2.

CEXF 773 tumors = test: Cervix carcinoma PDX model CEXF 773; assay type: in vivo, NMRI nu/nu mice; settings: for anti-tumor activity on CEXF 773 tumors: 4 mg/kg i.v. day 0 and day 7; for average tumor size versus IgG1-b12 and IgG1-b12-vcMMAE: day 28, 4 mg/kg i.v. day 0 and 7, p<0.001
Protocol: The anti-tumor activity of IgG1-AXL-183-vcMMAE and IgG1-AXL-726-vcMMAE was evaluated in the patient derived cervix carcinoma xenograft CEXF 773 model in NMRI nu/nu mice (Harlan, Netherlands). Experiments were performed by Oncotest (Freiburg, Germany).
Tumor fragments were obtained from xenografts in serial passage in nude mice. After removal from donor mice, tumors were cut into fragments (4-5 mm diameter) and placed in PBS (with 10% penicillin/streptomycin) until subcutaneous implantation. Mice under isofluorane anesthesia received unilateral, subcutaneous tumor implants in the flank. Tumors were allowed to grow until the tumor volume was 50-250 mm^3.
The treatment groups were: IgG1-b12, IgG1-b12-vcMMAE, IgG1-AXL-183-vcMMAE and IgG1-AXL-726-vcMMAE. The antibodies and ADCs were dosed intravenously (i.v.) at 4 mg/kg on the day of randomization (day 0) and on day 7. Tumor volumes (mm^3) were monitored twice weekly and were calculated from caliper (PLEXX) measurements as: 0.52×(length)×(width)^2.

LCLC-103H tumors = test: LCLC-103H xenograft model (low Gas6, Example 5); assay type: in vivo; settings: 3 mg/kg i.p., SCID mice
Protocol: as §1

MDA-MB-231 tumors = test: Orthotopic MDA-MB-231 D3H2LN breast cancer xenograft model; assay type: in vivo, SCID mice; settings: for anti-tumor activity on MDA-MB-231 tumors: 4 biweekly doses of 3 mg/kg; for average tumor size versus IgG1-b12 and IgG1-b12-vcMMAE: day 32, 4 biweekly doses of 3 mg/kg, P<0.001 One Way Anova
Protocol: The anti-tumor activity of IgG1-AXL-183-vcMMAE and IgG1-AXL-726-vcMMAE was evaluated in an orthotopic MDA-MB-231 D3H2LN xenograft model.
MDA-MB-231-luc D3H2LN Bioware cells (mammary gland adenocarcinoma; Perkin Elmer, Waltham, Mass.) were implanted in the mammary fat pad of 6-11 week old, female SCID (C.B-17/IcrPrkdc-scid/CRL) mice (Charles-River) under isofluorane anesthesia. Tumors were allowed to grow and mice were randomized when tumors reached a volume of ˜325 mm^3. […] The treatment groups were: IgG1-b12, IgG1-b12-vcMMAE, IgG1-AXL-183-vcMMAE and IgG1-AXL-726-vcMMAE. The animals received a total of 4 biweekly doses of 3 mg/kg antibody or ADC starting at the day of randomization. Tumor volumes (mm^3) were monitored twice weekly and were calculated from caliper (PLEXX) measurements as: 0.52×(length)×(width)^2.

[2] = Pre-clinical PK studies in cynomolgus monkey; assay type: in vivo
Source text: Data from 5 in-vivo pre-clinical studies, shown in the Table below, were provided, containing measurements of the plasma ADC level, plasma IgG level, and plasma MMAE level (only measured in study 5).
All studies appeared to show a significant drop in plasma concentrations of ADC/IgG after the 2nd dose when compared to the first dose, which corresponded with an ADA response. As this is a fully human antibody, ADA response are only very rarely expected to occur in humans. Therefore, only data after the first dose were included in the data preparation and subsequently modelled.

B1: IgG1-AXL-733-vcMMAE: anti-AXL antibody 733 (VH SEQ ID No 34, VL SEQ ID No 35) conjugated to vcMMAE (conjugate)
VH: QVQLVESGGGVVQPGRSLRLSCAASGFSFSTYAMHWVRQAPGKGLEWVAVISYDGDNKYSADSVKGRFTISRDNSKNTLYLQMNSLRAEDTAVYYCARGRKLGIDAFDIWGQGTMVTVSS
VL: AIQLTQSPSSLSASVGDRVTITCRASQGISSALAWYQQKPGKAPKLLIYDASSLESGVPSRFSGSGSGTDFTLTISGLQPEDFATYYCQQFNSYPFTFGPGTKVDIK
modifications: vc-MMAE conjugate; homo sapiens
PAXF1657 tumors; 2 mg/kg i.v., day 0
  growth of PAXF1657 tumors compared to the control group: significantly reduced the growth
PAXF1657 tumors; 4 mg/kg i.v., day 0
  anti-tumor activity on PAXF1657 tumors: induced tumor regression
PAXF1657 tumors; day 14, 2 mg/kg or 4 mg/kg, p<0.001 Tukey's multiple comparison test
  average tumor size versus isotype control IgG1-b12: significantly smaller
A431 tumors
  anti-tumor activity on A431 tumors: induced growth inhibition
[1]; 1 mg/kg single i.p.
  complete tumor reduction: in some mice within these groups to complete tumor reduction
  tumor volume versus control IgG1-b12: highly significant difference
[1]
  anti-tumor activity in established SC LCLC-103H tumors: induced tumor regression

B2: IgG1-AXL-183-N52Q-vcMMAE: anti-AXL antibody 183-N52Q (VH SEQ ID No 17, VL SEQ ID No 18) conjugated to vcMMAE (conjugate)
VH: QVQLQQWGAGLLKPSETLSLTCAVYGGSFSGYYWSWIRQPPGKGLEWIGEIQQSGSTNYNPSLKSRVTISVDTSKNQFSLKLSSVTAADTSVYYCASGNWDHFFDYWGQGTLVTVSS
VL: DIQMTQSPSSVSASVGDRVTITCRASQGISSWLAWYQHKPGKAPKLLIYATSSLQSGVTSRFSGSGSGTDFTLTISSLQPEDFATYYCQQAKSFPWTFGQGTKVEIK
modifications: vc-MMAE conjugate; homo sapiens
[1]; 1 mg/kg single i.p.
  tumor volume versus control IgG1-b12: not significant affected
[1]
  anti-tumor activity in established SC LCLC-103H tumors: no or only minor tumor growth inhibition

B3: IgG1-AXL-183-vcMMAE: anti-AXL antibody 183 (FN1-binder) conjugated to vcMMAE (conjugate)
VH: B2 VH with Q52N
VL: B2 VL
CEXF 773 tumors
  anti-tumor activity on CEXF 773 tumors: induced tumor regression
  average tumor size versus IgG1-b12 and IgG1-b12-vcMMAE: significantly smaller
A431 tumors
  anti-tumor activity on A431 tumors: induced growth inhibition
LCLC-103H tumors
  anti-tumor activity in the LCLC-103H xenograft model: induced tumor regression
MDA-MB-231 tumors
  anti-tumor activity on MDA-MB-231 tumors: induced tumor regression
  average tumor size versus IgG1-b12 and IgG1-b12-vcMMAE: significantly smaller

B4: IgG1-AXL-148 (antibody, V domains shown)
VH: EVQLLESGGGLVQPGGSLRLSCAASGFTFSSYAMTWVRQAPGKGLEWVSAISISGGSTFYADSVKGRFTISRDNSKNTLYLQMNSLRAEDTAVYYCRGYSGYVYDAFDFWGQGTMVTVSS
VL: DIQMTQSPSSLSASVGDRVTITCRASQGISNWLAWYQQKPEKAPKSLIYAASSLQSGVPSRFSGSGSGTDFTLTISSLQPEDFATYYCQQYNSYPLTFGGGTKVEIK
PAXF1657 tumors; dose not given
  anti-tumor activity in the PAXF1657 model: did not result in anti-tumor activity
[2]
  pharmacokinetic properties, unconjugated antibody (study 3) versus ADC (study 2): similar

B5: IgG1-AXL-726-M101L-vcMMAE: anti-AXL antibody 726-M101L (VH SEQ ID No 32, VL SEQ ID No 33) conjugated to vcMMAE (conjugate)
VH: QVQLQQWGAGLLKPSETLSLTCAIDGGSFSGYYWSWIRQPPGKGLEWIGEISHSGRTNYNPSLKSRVTISIDTSKNQFSLKLSSVAAADTAVYYCARFITLIRGAIITHFDYWGQGALVTVSS
VL: B4 VL with N31S, N92H, L96Y, G100Q, V104L
modifications: vc-MMAE conjugate; homo sapiens
[1]; 1 mg/kg single i.p.
  tumor volume versus control IgG1-b12: not significant affected
[1]
  anti-tumor activity in established SC LCLC-103H tumors: no or only minor tumor growth inhibition

B6: IgG1-AXL-726-vcMMAE: anti-AXL antibody 726 (FN2-binder) conjugated to vcMMAE (conjugate)
VH: B5 VH with L101M
VL: B4 VL with N31S, N92H, L96Y, G100Q, V104L
CEXF 773 tumors
  anti-tumor activity on CEXF 773 tumors: induced tumor regression
  average tumor size versus IgG1-b12 and IgG1-b12-vcMMAE: significantly smaller
A431 tumors
  anti-tumor activity on A431 tumors: induced growth inhibition
LCLC-103H tumors
  anti-tumor activity in the LCLC-103H xenograft model: induced tumor regression
MDA-MB-231 tumors
  anti-tumor activity on MDA-MB-231 tumors: induced tumor regression
  average tumor size versus IgG1-b12 and IgG1-b12-vcMMAE: significantly smaller

B7: IgG1-AXL-511-vcMMAE: anti-AXL antibody 511 (VH SEQ ID No 136, VL SEQ ID No 140) conjugated to vcMMAE (conjugate)
VH: EVQLLESGGGLVQPGGSLRLSCAASGFTFSSYAMNWVRQAPGKGLEWVSGISGSGGHTYHADSVKGRFTISRDNSKNTLYLQMNSLRAEDTAVYYCAKDRYDILTGYYNLLDYWGQGTLVTVSS
VL: B4 VL with N31S, K42E, T102A
modifications: vc-MMAE conjugate; homo sapiens
[1]; 1 mg/kg single i.p.
  tumor volume versus control IgG1-b12: significant tumor growth inhibition
[1]
  anti-tumor activity in established SC LCLC-103H tumors: induced tumor growth inhibition

From patent US20190233522A1, “NEW DOSAGE REGIMENS FOR ANTIBODY DRUG CONJUGATES BASED ON ANTI-AXL ANTIBODIES” (GENMAB A/S, priority 2016, published 2019)
